Measured values taken from the NTF2 design screens of Basanta et al. (2020).

Experiment: protease stability score; higher = more stable; yeast display proteolysis, trypsin and chymotrypsin;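 also: relative to predicted unfolded state with 0 unfolded-like and 1 meaning tenfold more protease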

Row | Sequence | protease stability score
1 | DEDEEMAHWAMEVLTKLIRTGDEDTILDMIDPHARIVYGDKTHHGREHFEKIIHELGVKVFEVHEIENQGEKVTIHGRQHVNGRTYDVKLFVQKVNGRWYIKRVHIK | 1.42
2 | DEDEEMFHRAVRLLLEHSRTGDEELTTKMADPHVKVDINGRDLIGRESYSRWWSEKAEQMRIDFRFRRVEVFDGVIFIDFKLIVDVNGRRLEFELHILILKIDGRWIIKEVHVK | 0.68
3 | DEDEEMMEHLIRILVEVLKTGDWKELLKLADPHVRQDVNGVDIHGREDVSRRLANQAKELRLELHLQDVKVWNGRVDFDSRLHINQGEKYVQLHVRIITEKIDGRWRITEIHVR | 1.62
4 | DEDEEMSERLSRIIVKALRTGNEHVLRRLVDPDVLSSIDGRKHHGWEDWHEFLKRLGHENVDVQLEHLRFQGNKIELDMILRVGDKTHTQHIHILKVDGRWTMHEVRIK | 1.42
5 | DEDEEMSKLLLEVSERVIETGDEHLWTRLLDPNVRIHLIIGDKTIELIGRERAHELLHHILERYKNATLRLRSVEIQGDKVIVESELNVGDKRIKQIYIWTKINGQWVLEEVNIEVR | 1.44
6 | DEDEEMSRIALNLFIHAMDTGDEHTLTHLMDPNVQLQINGREIIGREEVIRFVRELGVKHVKSHRLRDMELQGDKIIIDAEVEESQGDKEHHFRHTIVFRKVNGRWIIQSIKIK | 2.13
7 | DEDEEMVEKALELMAETHETGDEDTLHDFFDPHTRMELQIGDKTIRDHGRHAMHWLLRILGINHIEIHHRTVRLINGRIHLHINGSINVNGQEIESRIHIYSEKIDGRWRVTRLEYRFH | 1.31
8 | DEDEENAKMFTELLWRVLLTGDEELFKEMADPHVRVIFDGREIHGRDDIAHWITEMRFEINILRINDVRLVGDYIKIDGTMERQGEINGKRIRSSHRIIIFVRKINGKWHLEQLHFS | 2.26
9 | DEDEENARKVSKKYKEIVLTGDEHALERLIDPNVRIDFNGKEFHGREDLSRLFHERFKRADHIEFDVKHINVQGNKVDLDVREIEIVGDKTHVHNVILHVLKIDGRWLIKEIRVH | 1.26
10 | DEDEENARRFIHELSRILETGDEERLDEMADPDVRIIIGEKHLHGREEFRKWMRHLLKRVKNMQIEVQLTSSEIVGEWVNLDTTLIIRVGDKHYEHRTVVIVLKIDGRWFLHQIHFK | 1.79
11 | DEDEENFERLVHLTLHYLLTGDFEDFNHLADPHVKLNVNGQQHVGREKWSELLHLFGINHMQIEERDLRVIGDKVRLDVRGTSQVGDKEHEVHIHIHAQKVNGRWTVTEMQINTE | 2.1
12 | DEDEENIRKEVEIFKHLLETGNEQEMSKLADPNTRFYYGDKTIHGREEMIKFLHEEWRHLGVKHNEYRVKEMRSINGRAIIHGELIWKSENEIIHRDVLIIARKVDGKWVSESVHVH | 1.23
13 | DEDEENTRKLLESYIRVFRTGDEDRMIELADPDVRLKIDGVTRHGREDWMRHWLNLVERMGANVSELTRFDVFDGQVHSHHKLVQGDKERKMHLILIKVDGRWFLHEISEQ | 0.157
14 | DEDEENTRQAIDRIIRSWMTGDEKTMTELLDPRVRVEQGDKEFHGREDYTRWINEMRITHIDLRSIEKIDGRLHVHLEFDESVNGKRHRVDVELTIVKINGQWFLESVRIR | 0.681
15 | DEDEEQAEKMIKIWIHDMATGNEESLVRLADPRVRSEVDGVQLHGRESLRKFLHDEWRDLGVDRIQVHVRRYHVFDGRLHLDGEVIVNGQDKTMHIVLIKVDGRWHLKSVHFR | 2.14
16 | DEDEEQAERAIRIYTEVLNTGNEEESERMADPHVRIIVNGVILHGREMFYQYVHEWRVDIRVILRHVKVFEGWVDVEGEFNSHLEVNGRHENNRSKVRLHILKVNGVWLIHEVRVH | 1.5
17 | DEDEEQARRLAELIRHLLITGDEYVNRKMADPRVQFILHQGDKNYLHHGRDEVVRRLRELWEEWGFDQIHVNLDDVKIVNGRVIIHTRLQVGDKHMELRFIIEKIDGKWLVTHEQIHLH | 1.62
18 | DEDEEQLHEMVRIFLENMQTGNFEALLNYMDPNAKRRDVQGDKDITYIGREQAKEHDEKLDRHLGVKHFEIKRITIQGEKADIDTRLLFNGQLRDVRIHIIIVNGKLSYLEVQID | 0.897
19 | DEDEEQLKEMWREFLEASRTGDEHRIKELADPNARLRQGDKRFHGREEFSRLIVEMRIRHIEIRRIRVVGDKIEITTELHVIYNGQHIEVDTHVIILKVNGRWSLTEMEER | 0.905
20 | DEDEEQLRKWTRLTWRDMITGNEDSLHRLFDPHTRLDIDGVDVHGMESVSRKISDEMKRFDHVDFHLHDMRIFNGRAHIDGRLRFHINGVHLERREVIVILKINGQWFNEQISYK | 0.196
21 | DEDEEQTRRAWKINLEQWLTGDEELLDRNLDPDVRNDVNGVRLHGMELLTEMLHRFIEKLKGATIRLKDFRLRFYGNKIEVRVETIVHVNGVQIHVELIFIATKVDGRWRIHEISHHNR | 0.868
22 | DEDEERAKKLAEDTLHSWRTGNEEHMIKLADPNVRVEWNGKDFVGREEFKRSVHKMLRDLGVDNIEVRLDHIEVDEDHAIVYGEVIYNGRISQIEWVFRKVNGRWYLHRMHIRDR | 1.54
23 | DEDEERAQEMAKRLEDSLHTGDEETHQNLMDPHMRLRVNGKEFHGRENILHFLREWRIHHLDVRLRHIDDRGEYIIINSEVRVDGNIDGKRTELHTISEIILVKVDGRWMTDEFRFH | 0.72
24 | DEDEERARHHLEEIIKTIHTGDENLYEKLVDPNAWMDINGRELHGREEVVKYWSHEAHRFGIDVIRLRHEERVGNYVHSDTDLEVNGKTIKTRLVMLKINGKWVIQSFEMH | 0.75
25 | DEDEEREKVYHELHLHNLLTGNEEILANLVDPHVLSIVNGKELHGMDEVRKLWQELGWTWHDIHIHDEKRIGNKVHIDVRLNGNINGRTMIVRAKITITKINGRWYVSHIEII | 0.718
